From a protein production outcome set (Wang et al. 2014) come the findings set out here.
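Note: failed if final PepcDB status was selected cloned or expressed and not failed if soluble or beyond.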

This data set in a line: label from the status in PepcDB records.
Take “PLALFKWDLGFNLLECNQSAISMLNYTEDELKQCDFISALVPINEQKRVNKTCSDLLVNEGGEHGFNSLIKQNGNIILTEWHNSLIKDDS”: the protein production result is listed as “failed”.

On to “PLLDSFKVDHTKMNAPAVRIAKTMLTPKGDNITVFDLRFCIPNKEILSPKGIHTLEHLFAGFMRDHLNGDSIEIIDISPMGCRTGFYMSLIGTPNEQKVSEAWLASMQDVLGVQDQASIPELNIYQCGSYTEHSLEDAHEIAKNVIARGIGVNKNEDLSLDNSLLK”, for which the protein production result was “not failed”.

Turning to “PLPNPEGLDSDFLAVLSDYPSPDISPPIFRRGEKLRVISDEGGWWKAISLSTGRESYIPGICVARV”, the protein production result is “not failed”.

For the sequence “PMEDEPTSKKLKTEDSLMPEEEFLRRNKGPVSIKVQVPNMQDKTEWKLNGQVLVFTLPLTDQVSVIKVKIHEATGMPAGKQKLQYEGIFIKDSNSLAYYNMANGAVIHLALKERGGRKK”, the protein production entry was “failed”.

On to “PPGPCLPPRLQGRPKAKEIQLRWGPPLVDGGSPISCYSVEMSPIEKDEPREVYQGSEVECTVSSLLPGKTYSFRLRAANKMGFGPFSEKCDITTAPG”, for which the protein production result is listed as “not failed”.

In the case of “PPNDNIPTPLEKEEKAKEASDNKEKTKETSNSAQNAQNTQASDKTSDNKSTAPKETIKHFTQQLKQEIQEYKPPMSRISMDLFPKELGKVEVIIQKVGKNLKVSVISHNNSLQTFLDNQQDLKNSLNALGFEGVDLSFSQDS”, the protein production result is “failed”.

“PPQAMNALMRLNQLKPGLQYKLVSQTGPVHAPIFTMSVEVDGNSFEASGPSKKTAKLHVAVKVLQDMGLPTGAEGRDSSKGEDS”: the protein production result is on record as “failed”.

Take “PPVIRQGPVNQTVAVDGTFVLSCVATGSPVPTILWRKDGVLVSTQDSRIKQLENGVLQIRYAKLGDTGRYTCIASTPSGEATWSAYIEVQEFGVPVQPPRPTDPNLIPSAP”: the protein production result is “not failed”.

Take “PQKIFTPSAEIVKYTKIIAMEKLYAVFTDYEHDKVSRDEAVNKIRLDTEEHLKEKFPEVDQFEIIESFNIVAKEVFRSIILNEYKRCDGRD”: the protein production entry was “not failed”.

As to “PRPAVSVAPTTEAESFVQDRIEEDGLHVVHFWAPWCANSRNELDNGWAGLVADNPDVTFTFVTVWNDDESGAAMLNDYNLPDRVVEVTQPDLGPSDTEANRRYSFLGLPVTWIPSTWIFHSNGELAFAMNYGEMEMQTVQRLLDATSADW”, the protein production result is given as “failed”.

For the sequence “PTLDSVEDGVLKKVVINISNSCNLSCSYCYADGGNYGMDNRIMDLTTADNIIQEIASKGVTQINRLILFGGEPFLNIELFIYFIEKLSTLLNVVKIETVTNGTVLNKRVKEMLVKFHPYLTISLDGPEIVHDRLRGRGSHRKTLRFINYLKNIDYE”, the protein production result is given as “failed”.

Turning to “QAEMTQRMQQLEALNDLNRAILAASDAEQIAQIGLRSLRRQVPFWGATAMLIDWESSCARVLAIERAPGASYDPGQRLSLVSYGMEDLERMKRGETCVVTDLGQIPRRALTLERLYQQGIQSYARIPLLAEGRLLGMLNLASDAVGAFDAAQLDVAQAYARHLAVSLQQSLL”, the protein production result is listed as “failed”.

Consider “QAPLRIECTDISHIQGTDVVASLVVFEDGLPRKSDYRRYRVKEAAGDGHSNDVASIAEITRRRFLRHNQDKLAVPEAEEFDGSTFSDEKVEEMSTDARRFAYPPQIFIVDGGAPQVAAAQEVFDELGIVDVVLIGLAKRLEEIWLPGDPDPVILPRNSQALFLLQQIRDEAHRFAITYHRQQRSKRMRVSELDSIKG”, for which the protein production result was “failed”.

Regarding “QAVPCRAPKVGRLIYTAGGYFRQSLSYLEAYNPSNGSWLRLADLQVPRSGLAGCVVGGLLYAVGGRNNSPDGNTDSSALDCYNPMTNQWSPCASMSVPRNRIGVGVIDGHIYAVGGSHGCIHHSSVERYEPERDEWHLVAPMLTRRIGVGVAVLNRLLYAVGGFDGTNRLNSAECYYPERNEWRMITPMNTIRSGAGVCVLHNCIYAAGGYDGQDQLNSVERYDVETETWTFVAPMRHRSALGITVHQGKIYVLGGYDGHTFLDSVECYDPDSDTWSEVTRMTSGRSGVGVAVTMEPCRKQIDQQNCTC”, the protein production entry is reported as “not failed”.

As for “QIGVPPSGPMDDLSFRLGNTALGNPEGAPGLEFTMAGPALRFTHATTVCVTGADVTVTVNGNTANTWEPITVPENGLLDVGSADGSGLRGYILFEGGLDVPRYLGSASTFTLGQFGGHGGRVLRTSDVLRTVSDHLPETVPGVVPEESRPALTSDWELKVVEGPHGAPEFFEREDIEELYAAEYEVHFNSARTGVRLIGPKPRWARNDGGEAGLHPSNIHDTAYSVGALDFTGDTPILLGPDGPSLGGFVCPVTVVTGERWKLGQLRPGDKVRFVPIRSVEAPSVKELGAAR”, the protein production result is given as “failed”.

“QIHLFSEPQFQGHSQSFEETTSQIDDSFSTKSCRVSGGSWVVYDGENFTGNQYVLEEGHYPCLSAMGCPPGATFKSLRFI”: the protein production result is listed as “not failed”.

As to QKEKCFKCNKCEKTFSCSKYLTQHERIHTRGVK, the protein production result is “not failed”.

For the sequence “QKIEKQYDADLEQILIQWITTQCRKDVGRPQPGRENFQNWLKDGTVLCELINALYPEGQAPVKKIQASTMAFKQMEQISQFLQAAERYGINTTDIFQTVDLWEGKNMACVQRTLMNLGGLAVARDDGLFSGDPNWFPKKSKE”, the protein production result is given as “not failed”.

For “QKKDTSNHFHVFVGDLSPEITTEDIKAAFAPFGRISDARVVKDMATGKSKGYGFVSFFNKWDAENAIQQMGGQWLGGRQIRTNWATRKPPAPKSTYESNTKQ”, the protein production result is “not failed”.

Regarding “QKVPLPSLSPTMQAGTIARWEKKEGDKINEGDLIAEVETDKATVGFESLEECYMAKILVAEGTRDVPIGAIICITVGKPEDIEAFKNYTLDSSAA”, the protein production result is reported as “not failed”.

Consider “QPSRFLLKVLAGANIGAEFHLDSGKTYIVGSDPQVADIVLSDMSISRQHAKIIIGNDNSVLIEDLGSKNGVIVEGRKIEHQSTLSANQVVALGTTLFLLVDYAAPS”, for which the protein production entry is “not failed”.

Regarding “QQKLAANVFKNSQDGVLIYDADGKLTLMNPAFTDIFGYQMSELSNIPMLTLFDGHHFTTSTSLITESIQRFGQWHGEVLEKDKYGAELPLYVKASKIIDTEQYGQNSYIFIFTNLS”, the protein production entry is reported as “failed”.

With “QRISLEIMTLQPRCEDVETAEGVALTVTGVAQVKIMTEKELLAVACEQFLGKNVQDIKNVVLQTLEGHLRSILGTLTVEQIYQDRDQFAKLVREVAAPDVGRMGIEILSFTIKDVYDKVDYLSSLGKTQT”, the protein production entry is listed as “not failed”.

On to “QSAKEAIEAANADFVKAYNSKDAAGVASKYMDDAAAFPPDMARVDGRQNIQKLWQGAMDMGISELKLTTLDVQESGDFAFESGSFSLKAPGKDSKLVDAAGKYVVVWRKGQDGGWKLYRDIWNSDPAK”, for which the protein production result was “not failed”.

As for “QSTGQVTLGVLTDMSSVYADSAGKGSVAAVQLAIEDVGGKALGQPVKLVSADYQMKTDVALSIAREWFDRDGVDAIFDVVNSGTALAINNLVKDKKKLAFITAAAADQIGGTECNGYGIGFLYNFTSIVKTVVQAQLAKGYKTWFLMLPDAAYGDLMNAAIRRELTAGGGQIVGSVRFPFETQDFSSYLLQAKASGAQLIVSTSGGAANINIMKQAREFGLPSKTQKVGGMIDILTDVKSAGLRVMQGQEYATSFYWNMDDRTRAFAKRFYAKMGKMPTNNQAGGYSAALQYLKAVNAIGSKDPQKVFAYLKTIKFDDAVTRHGTLRPGGRLVRDMYLVRAKKPEDQKGDWDYYDVVATIGPEQAFGPLSESRCAMDK”, the protein production entry was “not failed”.

Take “QSVHDIEKTLIRIGVVQWQMRAMNDLEDLLDQAEFFISSLANYKADFALFPEFFNAPLMGLQNDQNSVEAIRFLASFTEEIKNRFSQMAVTYNINIIAGSMPLIEDGKLYNVAYLLQRDGEINAQYKIHITPHEQKDWVIDGGDNVQVFETDAGKVGILICYDSEFPELGRMLAEQGAQIIFVPFWTDTKNGYQRVRICSQSRAIENECYVAIGGSVGNLPRVDNVDIQYAQSAVFSPSDIYFPHDATLTEASANTEMIIFADVDLTKLKQLNTEGSVTNLRHRRLDLYGAFTTPKE”: the protein production entry was “failed”.

“QTASGASYVLREIGADDTATAFAALSVLRSSLTDIGRFTEQINKIQRPQGYRLLGIFEECKHNAVAVCGFREACTLAGGRHIHIDDIVTLPQSRRKGYASRLLEEVRKIGAETGVTKIHLNVHVNHDRTDAHRLYFKNGFEICAYHFRCDPK”: the protein production entry is listed as “failed”.

Regarding “QTDPKKPTTDEGTASSEVNATEEMSTLVNYIEPVKFKSFEAARKRNKCFEMSSFVETKAMEQLTKSPMEFVEYNKQQLSRIYPKGTRVDSSNYMPQLFWNVGCQLVALNFQTLDVAMQLNAGVFEYNGRSGYLLKPEFMRRPDKSFDPFTEVIVDGIVANALRVKVISGQFLSDRKVGIYVEVDMFGLPVDTRRKYRTRTSQGNSFNPVWDEEPFDFPKVVLPTLASLRIAAFEEGGKFVGHRILPVSAIRSGYHYVCLRNEANQPLCLPALLIYTEASDYIPDDHQDYAEALINPIKHVSLMDQRARQLAALIGESEAQAGQETCQDTQSQQLGSQPSSNPTPSPLD”, the protein production result is recorded as “failed”.

For “RETLDNLSEAVAVFGSNGCAQLFNPPFARMWNLSAEALQSQPHIEAIEEWCRPLFDDDVFWQALRGAITGIDDRRHVLLKIERKDGSVLACKTMPLPDGATMLTFQDITDTENVERALRERNEALETADRIKIDFVHHVSYELRSPLTTIIGFA”, the protein production entry is listed as “failed”.

In the case of “RFRVTPYHGNLLGDHERLAAFREAISSRARGLTYDLGAGSGILSFFASEYADRVIAIERDPKIAACAGENLSGLDNVSVVNEDALHYEFSAADTIICEMLDTALIDEEQVPVLRRALKFLRNDGTVIPQAVF”, the protein production entry is reported as “failed”.

Consider “RGIAVYVEHHNGNIHPVTYELIGKAREMASKIKQPVYCVFVGKDIKDKCSNLISYGVDEVFVYDEDEFKDFRIEPYSKAIENFIDKIKPTIVLVGGTTLGRSLAPRLAARFRTGLTADCTILDIQSNTDLDQIRPAFGGNIMAHINTPNNRPQFATVRYKIFSAPEKIENTTGKITLCKVEKKELKSKIKVLSVKEKNKEVG”, for which the protein production result is reported as “failed”.

As to “RGLALCREHYLDWFVKETERAIRRHRMLLPGERVLVAVSGGKDSLALWDVLSRLGYQAVGLHIELGIGEYSKRSLEVTQAFARERGLELLVVDLKEAYGFGVPELARLSGRVACSACGLSKRYIINQVAVEEGFRVVATGHNLDDEAAVLFGNLLNPQEETLSRQGPVLPEKPGLAARVKPFYRFSEREVLSYTLLRGIRYLHEEC”, the protein production entry is recorded as “failed”.

Regarding “RIVSTLNERLAGLTLHEIRDTYEERLDDLPDETGLIALVLDEASILFSEPDEGRLQFDGTQNILSQPEFQEPDDMRHLIETIEDEDRIVQVIENLFEANPDAVGQAVVRIGSETDQEEMDAYSIVLSPYQLGDTVGSLGVIGPKRMDYGRAVALVENMAAVVNRPADDETTD”, the protein production entry is “failed”.

Turning to “RKEDHARLRALNGLLYKALTDLLCTPEVSQELYDLNVELSKVSLTPDFSACRAYWKTTLSAEQNAHMEAVLQRSAAHMRHLLMSQQTLRNVPPIVFVQDKGNAALAELDQLLAVAD”, the protein production entry was “not failed”.
